Measured values from publication PMC2995052 (Nucleic Acids Research, 2010).

Biological target: the molecule itself
Experiment: SEC

B1: P2 C repressor (immunity repressor of temperate Escherichia coli phage P2) (natural protein, bacteriophage P2, UniProt P04132 1-99, looked up)
chain: MSNTISEKIVLMRKSEYLSRQQLADLTGVPYGTLSYYESGRSTPPTDVMMNILQTPQFTKYTLWFMTNQIAPEFGQIAPALAHFGQNETTSPHSGQKTG
**Q.** With B1 as the protein, how does the “stoichiometry N” value read?
**A.** 2
